Reference: doi:10.1101/2023.03.15.532789

How the values were obtained:
[1] = molecular target: hDLG1 PDZ1 domain (human) (UniProt Q12959); assay: NMR titration
[2] = molecular target: hDLG1 PDZ2 domain (human) (UniProt Q12959); assay: ITC
[3] = molecular target: hDLG1 PDZ1 domain (human) (UniProt Q12959); assay: ITC

Chain of hDLG1 PDZ1 domain (human) (Q12959 whole entry, the tested form may be a part): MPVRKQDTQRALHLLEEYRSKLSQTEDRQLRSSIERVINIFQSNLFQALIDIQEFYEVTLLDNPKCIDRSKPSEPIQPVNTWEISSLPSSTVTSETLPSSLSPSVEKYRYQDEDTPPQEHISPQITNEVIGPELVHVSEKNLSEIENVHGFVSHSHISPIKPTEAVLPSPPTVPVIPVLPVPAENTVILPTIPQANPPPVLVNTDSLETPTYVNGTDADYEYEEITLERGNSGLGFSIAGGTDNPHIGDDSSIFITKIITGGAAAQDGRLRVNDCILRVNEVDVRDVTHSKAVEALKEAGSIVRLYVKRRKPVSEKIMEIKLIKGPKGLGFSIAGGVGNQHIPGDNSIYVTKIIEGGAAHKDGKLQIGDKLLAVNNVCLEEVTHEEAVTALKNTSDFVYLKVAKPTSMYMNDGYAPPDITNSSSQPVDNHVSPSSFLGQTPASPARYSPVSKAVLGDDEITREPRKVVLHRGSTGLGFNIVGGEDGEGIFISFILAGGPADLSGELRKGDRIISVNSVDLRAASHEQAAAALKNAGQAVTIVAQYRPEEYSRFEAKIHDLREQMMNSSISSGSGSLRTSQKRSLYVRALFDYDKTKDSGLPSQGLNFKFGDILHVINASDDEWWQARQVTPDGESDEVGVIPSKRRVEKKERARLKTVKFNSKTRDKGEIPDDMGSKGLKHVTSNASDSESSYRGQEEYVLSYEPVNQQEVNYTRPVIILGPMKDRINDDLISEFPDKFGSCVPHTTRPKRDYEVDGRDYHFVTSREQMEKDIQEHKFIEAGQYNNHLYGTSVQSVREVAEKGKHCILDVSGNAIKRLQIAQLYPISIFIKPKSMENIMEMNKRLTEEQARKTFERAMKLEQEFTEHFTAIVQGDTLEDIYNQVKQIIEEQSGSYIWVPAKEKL
Chain of hDLG1 PDZ2 domain (human) (Q12959 whole entry, the tested form may be a part): as above

Substance	Kd [1] [µM]	Kd [2] [µM]	dH [2] [kJ/mol]	stoichiometry N [2]	Kd [3] [µM]	dH [3] [kJ/mol]	stoichiometry N [3]
C-terminally amidated Tax-1 peptide (Tax-1mod)	951	–	–	–	–	–	–
Tax-1 10-mer peptide (H-…-OH)	–	0.9	-43.5	0.99	2.7	-33.5	1.03
